Source: PMC7282669, “The hydrophobic effect characterises the thermodynamic signature of amyloid fibril growth” (PLoS Computational Biology, 2020)

Biological target: the molecule itself
Assay: ITC; crystals injected into water; heat of crystal dissolution taken as the negative of the heat of crystal growth; two temperatures

B1: GNNQQNY, a small fragment of the Sup35 protein (peptide)
peptide: GNNQQNY
notes: fragment of the Sup35 protein; Forms amyloid-like microcrystals; also called GNNQQNY peptide
binding result: binds
